Tested on: Escherichia coli TOP10
Test: shrunken log2 fold change of peptide-encoding DNA abundance (4.5 h post-induction vs induction); higher = less antimicrobial activity (less host growth inhibition)
Details: time post-induction: 4.5 h; library: site-saturation at positions 5, 18, 19, 20
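Further: peptides expressed intracellularly from a pBAD plasmid library in pooled LB shake-flask culture, induced with 0.3% L-arabinose, DNA abundance read by NGS, three biological replicates, DESeq2 with apeglm shrinkage.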

For RRIRRRPPRLPRPRPRPISGPRP, the “shrunken log2 fold change” value was 0.0239.

For RRIRRRPPRLPRPRPRPITDPRP, the “shrunken log2 fold change” value was -0.101.

With RRIRRRPPRLPRPRPRPITGPRP the “shrunken log2 fold change” value was 0.111.

With RRIRRRPPRLPRPRPRPIWMPRP the “shrunken log2 fold change” value was 0.0986.

RRIRRRPPRLPRPRPRPKAVPRP was tested, and the “shrunken log2 fold change” value was 0.0693.

For RRIRRRPPRLPRPRPRPKDMPRP, the “shrunken log2 fold change” value was -0.0599.

For RRIRRRPPRLPRPRPRPKFHPRP, the “shrunken log2 fold change” value was 0.323.

In the case of RRIRRRPPRLPRPRPRPKFTPRP, the “shrunken log2 fold change” value is reported as -0.176.

For RRIRRRPPRLPRPRPRPKGFPRP, the “shrunken log2 fold change” value was -0.12.

In the case of RRIRRRPPRLPRPRPRPKHQPRP, the “shrunken log2 fold change” value is reported as 1.57.

RRIRRRPPRLPRPRPRPKIAPRP was tested, and the “shrunken log2 fold change” value was 0.147.

With RRIRRRPPRLPRPRPRPKIEPRP the “shrunken log2 fold change” value was 0.0387.

In the case of RRIRRRPPRLPRPRPRPKIRPRP, the “shrunken log2 fold change” value is reported as 0.0898.

For RRIRRRPPRLPRPRPRPKLQPRP, the “shrunken log2 fold change” value was 0.179.

With RRIRRRPPRLPRPRPRPKMDPRP the “shrunken log2 fold change” value was -0.0711.

RRIRRRPPRLPRPRPRPKMGPRP was tested, and the “shrunken log2 fold change” value was -0.0227.

With RRIRRRPPRLPRPRPRPKPQPRP the “shrunken log2 fold change” value was 0.403.

With RRIRRRPPRLPRPRPRPKSNPRP the “shrunken log2 fold change” value was 0.0649.

For RRIRRRPPRLPRPRPRPKWWPRP, the “shrunken log2 fold change” value was 0.579.

For RRIRRRPPRLPRPRPRPKYFPRP, the “shrunken log2 fold change” value was 0.162.

For RRIRRRPPRLPRPRPRPKYHPRP, the “shrunken log2 fold change” value was -0.153.

RRIRRRPPRLPRPRPRPLATPRP was tested, and the “shrunken log2 fold change” value was 0.882.

For RRIRRRPPRLPRPRPRPLCQPRP, the “shrunken log2 fold change” value was -0.00285.

For RRIRRRPPRLPRPRPRPLEDPRP, the “shrunken log2 fold change” value was -0.0161.

With RRIRRRPPRLPRPRPRPLEIPRP the “shrunken log2 fold change” value was 0.0856.

RRIRRRPPRLPRPRPRPLEVPRP was tested, and the “shrunken log2 fold change” value was 0.197.

In the case of RRIRRRPPRLPRPRPRPLHSPRP, the “shrunken log2 fold change” value is reported as 0.357.

For RRIRRRPPRLPRPRPRPLHVPRP, the “shrunken log2 fold change” value was -0.125.

For RRIRRRPPRLPRPRPRPLIYPRP, the “shrunken log2 fold change” value was 0.431.

With RRIRRRPPRLPRPRPRPLKCPRP the “shrunken log2 fold change” value was 0.0734.

With RRIRRRPPRLPRPRPRPLKLPRP the “shrunken log2 fold change” value was -0.0808.

RRIRRRPPRLPRPRPRPLNDPRP was tested, and the “shrunken log2 fold change” value was 0.0468.

In the case of RRIRRRPPRLPRPRPRPLRWPRP, the “shrunken log2 fold change” value is reported as 0.732.

In the case of RRIRRRPPRLPRPRPRPLSSPRP, the “shrunken log2 fold change” value is reported as 0.234.

In the case of RRIRRRPPRLPRPRPRPLWLPRP, the “shrunken log2 fold change” value is reported as -0.107.

For RRIRRRPPRLPRPRPRPLYQPRP, the “shrunken log2 fold change” value was -0.315.

RRIRRRPPRLPRPRPRPMAQPRP was tested, and the “shrunken log2 fold change” value was 0.318.

For RRIRRRPPRLPRPRPRPMAWPRP, the “shrunken log2 fold change” value was 0.0237.

In the case of RRIRRRPPRLPRPRPRPMCYPRP, the “shrunken log2 fold change” value is reported as -0.069.

RRIRRRPPRLPRPRPRPMEEPRP was tested, and the “shrunken log2 fold change” value was 0.0408.

For RRIRRRPPRLPRPRPRPMFRPRP, the “shrunken log2 fold change” value was -0.0342.

With RRIRRRPPRLPRPRPRPMFTPRP the “shrunken log2 fold change” value was 0.0616.

RRIRRRPPRLPRPRPRPMGSPRP was tested, and the “shrunken log2 fold change” value was -0.0322.

With RRIRRRPPRLPRPRPRPMIHPRP the “shrunken log2 fold change” value was -0.0319.

In the case of RRIRRRPPRLPRPRPRPMKHPRP, the “shrunken log2 fold change” value is reported as -0.191.

In the case of RRIRRRPPRLPRPRPRPMKPPRP, the “shrunken log2 fold change” value is reported as 0.0733.

In the case of RRIRRRPPRLPRPRPRPMKRPRP, the “shrunken log2 fold change” value is reported as 0.0474.

RRIRRRPPRLPRPRPRPMLAPRP was tested, and the “shrunken log2 fold change” value was 0.983.

For RRIRRRPPRLPRPRPRPMLDPRP, the “shrunken log2 fold change” value was 0.116.

For RRIRRRPPRLPRPRPRPMLIPRP, the “shrunken log2 fold change” value was -0.0813.

With RRIRRRPPRLPRPRPRPMLLPRP the “shrunken log2 fold change” value was -0.0984.

RRIRRRPPRLPRPRPRPMMCPRP was tested, and the “shrunken log2 fold change” value was 0.102.

In the case of RRIRRRPPRLPRPRPRPMMLPRP, the “shrunken log2 fold change” value is reported as -0.142.

RRIRRRPPRLPRPRPRPMNMPRP was tested, and the “shrunken log2 fold change” value was 0.922.

For RRIRRRPPRLPRPRPRPMPSPRP, the “shrunken log2 fold change” value was 0.136.

In the case of RRIRRRPPRLPRPRPRPMQRPRP, the “shrunken log2 fold change” value is reported as 0.24.

With RRIRRRPPRLPRPRPRPMRIPRP the “shrunken log2 fold change” value was 0.0269.

RRIRRRPPRLPRPRPRPMRWPRP was tested, and the “shrunken log2 fold change” value was 0.638.

With RRIRRRPPRLPRPRPRPMSPPRP the “shrunken log2 fold change” value was -0.185.

RRIRRRPPRLPRPRPRPMSSPRP was tested, and the “shrunken log2 fold change” value was -0.00615.

With RRIRRRPPRLPRPRPRPMVLPRP the “shrunken log2 fold change” value was -0.0254.

RRIRRRPPRLPRPRPRPMVMPRP was tested, and the “shrunken log2 fold change” value was 0.158.

For RRIRRRPPRLPRPRPRPMVSPRP, the “shrunken log2 fold change” value was 0.0678.

For RRIRRRPPRLPRPRPRPMWVPRP, the “shrunken log2 fold change” value was -0.135.

For RRIRRRPPRLPRPRPRPMYLPRP, the “shrunken log2 fold change” value was -0.0501.

RRIRRRPPRLPRPRPRPNAMPRP was tested, and the “shrunken log2 fold change” value was 0.258.

In the case of RRIRRRPPRLPRPRPRPNAWPRP, the “shrunken log2 fold change” value is reported as 0.597.

With RRIRRRPPRLPRPRPRPNDPPRP the “shrunken log2 fold change” value was 0.0958.

RRIRRRPPRLPRPRPRPNDVPRP was tested, and the “shrunken log2 fold change” value was -0.0736.

For RRIRRRPPRLPRPRPRPNHPPRP, the “shrunken log2 fold change” value was -0.0297.

With RRIRRRPPRLPRPRPRPNIGPRP the “shrunken log2 fold change” value was -0.89.

With RRIRRRPPRLPRPRPRPNIQPRP the “shrunken log2 fold change” value was 0.0304.

For RRIRRRPPRLPRPRPRPNKEPRP, the “shrunken log2 fold change” value was -0.0865.

With RRIRRRPPRLPRPRPRPNKQPRP the “shrunken log2 fold change” value was -0.00565.

In the case of RRIRRRPPRLPRPRPRPNLMPRP, the “shrunken log2 fold change” value is reported as 0.85.

With RRIRRRPPRLPRPRPRPNMIPRP the “shrunken log2 fold change” value was -0.914.

For RRIRRRPPRLPRPRPRPNNLPRP, the “shrunken log2 fold change” value was -0.293.

RRIRRRPPRLPRPRPRPNPAPRP was tested, and the “shrunken log2 fold change” value was 0.643.

RRIRRRPPRLPRPRPRPNPHPRP was tested, and the “shrunken log2 fold change” value was 0.534.

With RRIRRRPPRLPRPRPRPNSYPRP the “shrunken log2 fold change” value was -0.116.

With RRIRRRPPRLPRPRPRPNTSPRP the “shrunken log2 fold change” value was -0.116.

For RRIRRRPPRLPRPRPRPNVGPRP, the “shrunken log2 fold change” value was 0.0319.

With RRIRRRPPRLPRPRPRPNWMPRP the “shrunken log2 fold change” value was 0.0739.

With RRIRRRPPRLPRPRPRPPAIPRP the “shrunken log2 fold change” value was 1.03.

For RRIRRRPPRLPRPRPRPPCFPRP, the “shrunken log2 fold change” value was 0.741.

For RRIRRRPPRLPRPRPRPPCGPRP, the “shrunken log2 fold change” value was 0.324.

In the case of RRIRRRPPRLPRPRPRPPDNPRP, the “shrunken log2 fold change” value is reported as 0.548.

In the case of RRIRRRPPRLPRPRPRPPEQPRP, the “shrunken log2 fold change” value is reported as 0.033.

In the case of RRIRRRPPRLPRPRPRPPGCPRP, the “shrunken log2 fold change” value is reported as 0.417.

With RRIRRRPPRLPRPRPRPPGRPRP the “shrunken log2 fold change” value was 1.52.

With RRIRRRPPRLPRPRPRPPHTPRP the “shrunken log2 fold change” value was 0.879.

With RRIRRRPPRLPRPRPRPPINPRP the “shrunken log2 fold change” value was 0.0262.

RRIRRRPPRLPRPRPRPPLCPRP was tested, and the “shrunken log2 fold change” value was 0.971.

With RRIRRRPPRLPRPRPRPPMEPRP the “shrunken log2 fold change” value was -0.0681.

RRIRRRPPRLPRPRPRPPMHPRP was tested, and the “shrunken log2 fold change” value was 0.693.

With RRIRRRPPRLPRPRPRPPMSPRP the “shrunken log2 fold change” value was 0.142.

With RRIRRRPPRLPRPRPRPPQHPRP the “shrunken log2 fold change” value was 1.2.

RRIRRRPPRLPRPRPRPPRCPRP was tested, and the “shrunken log2 fold change” value was 1.49.

With RRIRRRPPRLPRPRPRPPRKPRP the “shrunken log2 fold change” value was 1.5.

For RRIRRRPPRLPRPRPRPPRSPRP, the “shrunken log2 fold change” value was 0.904.

With RRIRRRPPRLPRPRPRPPSLPRP the “shrunken log2 fold change” value was 0.522.

RRIRRRPPRLPRPRPRPPTWPRP was tested, and the “shrunken log2 fold change” value was 0.336.

For RRIRRRPPRLPRPRPRPPWDPRP, the “shrunken log2 fold change” value was 0.577.

RRIRRRPPRLPRPRPRPPWFPRP was tested, and the “shrunken log2 fold change” value was 0.479.

For RRIRRRPPRLPRPRPRPPYFPRP, the “shrunken log2 fold change” value was 0.442.

In the case of RRIRRRPPRLPRPRPRPQAQPRP, the “shrunken log2 fold change” value is reported as 0.0393.

For RRIRRRPPRLPRPRPRPQCHPRP, the “shrunken log2 fold change” value was -0.0986.

RRIRRRPPRLPRPRPRPQDKPRP was tested, and the “shrunken log2 fold change” value was -0.289.

RRIRRRPPRLPRPRPRPQDMPRP was tested, and the “shrunken log2 fold change” value was 0.0973.
